According to patent US20230355720A1, “PHARMACEUTICAL COMPOSITION FOR PREVENTING OR TREATING BONE DISEASES, COMPRISING TRIPLE AGONIST OR CONJUGATE THEREOF HAVING ACTIVITY WITH RESPECT TO ALL OF GLUCAGON, GLP-1 AND GLP RECEPTORS” (HANMI PHARM. CO., LTD., priority 2020, published 2023):
Bridge positions count the residues as written; N and C are the ends. Square brackets hold non-standard residues; d marks the D form. Ends that are not written are not given here. * marks the point of attachment. Acetyl(2-(4-imidazolyl)) = O=C(Cc1c[nH]cn1)*; Aib = CC(C)(N)C(=O)O

T1: human GIP receptor (human, UniProt P48546 22-466)
T1 sequence (looked up): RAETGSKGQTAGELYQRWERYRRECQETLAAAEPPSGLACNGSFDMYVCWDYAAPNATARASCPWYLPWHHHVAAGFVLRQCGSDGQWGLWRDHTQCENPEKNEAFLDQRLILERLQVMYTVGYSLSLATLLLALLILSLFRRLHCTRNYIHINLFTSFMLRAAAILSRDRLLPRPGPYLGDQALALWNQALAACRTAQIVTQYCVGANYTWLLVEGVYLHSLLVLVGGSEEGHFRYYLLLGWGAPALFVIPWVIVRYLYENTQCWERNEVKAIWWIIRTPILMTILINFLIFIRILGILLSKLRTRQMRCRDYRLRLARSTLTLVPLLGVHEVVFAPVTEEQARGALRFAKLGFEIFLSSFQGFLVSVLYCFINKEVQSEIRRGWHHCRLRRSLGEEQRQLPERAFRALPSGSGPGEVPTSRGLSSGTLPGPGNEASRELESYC


Legend:
Assay in all cases: cell-based or functional assay
human GIP receptor = molecular target: T1, human GIP receptor
human GCG receptor = human GCG receptor (human, UniProt P47871 26-477)
human GLP-1 receptor = human GLP-1 receptor (human, UniProt P43220 24-463)

Sequence of human GCG receptor (P47871 26-477): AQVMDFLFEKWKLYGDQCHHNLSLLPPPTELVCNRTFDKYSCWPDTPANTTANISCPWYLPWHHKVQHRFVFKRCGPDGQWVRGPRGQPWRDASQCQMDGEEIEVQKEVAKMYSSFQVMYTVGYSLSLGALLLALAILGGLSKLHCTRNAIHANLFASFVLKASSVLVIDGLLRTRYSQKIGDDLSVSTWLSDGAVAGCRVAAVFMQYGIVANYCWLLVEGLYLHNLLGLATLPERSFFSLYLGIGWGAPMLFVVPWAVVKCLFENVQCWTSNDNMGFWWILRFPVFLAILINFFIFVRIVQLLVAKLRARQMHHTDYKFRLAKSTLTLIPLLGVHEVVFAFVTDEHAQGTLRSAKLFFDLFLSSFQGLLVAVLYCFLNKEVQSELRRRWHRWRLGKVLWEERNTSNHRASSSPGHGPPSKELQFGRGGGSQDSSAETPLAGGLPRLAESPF

Binder | In vitro activity (%) compared with native peptide, vs GIP (human GIP receptor) | In vitro activity (%) compared with native peptide, vs Glucagon (human GCG receptor) | In vitro activity (%) compared with native peptide, vs GLP-1 (human GLP-1 receptor)
H[Aib]QGTFTSDVSKYLDGQAAQEFVAWLLAGGGPSSGAPPPSC (not fully specified) [triple agonist of SEQ ID NO: 10] | < 0.1% | < 0.1% | 46%
{Acetyl(2-(4-imidazolyl))}-[Aib]QGTFTSDYSIAMDEIHQKDFVNWLLNTKC (bridge 15-19; numbers in words are those of the source; also: ring between positions 16 and 20, type not given here) [triple agonist of SEQ ID NO: 94] | < 0.1% | < 0.1% | 0.5%
[Acetyl(2-(4-imidazolyl))][Aib]QGTFTSDYSIAMDEIHQKDFVNWLLAQKC (bridge 16-20; not fully specified) [triple agonist of SEQ ID NO: 92] | 0.4% | < 0.1% | 0.8%
{Acetyl(2-(4-imidazolyl))}-[Aib]QGTFTSDYSIAMDEIHQKDFVNWLLNTC (bridge 15-19; numbers in words are those of the source; also: ring between positions 16 and 20, type not given here) [triple agonist of SEQ ID NO: 87] | < 0.1% | < 0.1% | 0.9%
{Acetyl(2-(4-imidazolyl))}-[Aib]QGTFTSDYSKYLDEKRQKEFVQWLLNTKC (bridge 15-19; numbers in words are those of the source; also: ring between positions 16 and 20, type not given here) [triple agonist of SEQ ID NO: 88] | < 0.1% | 0.3% | 9.6%
{Acetyl(2-(4-imidazolyl))}-[Aib]QGTFTSDYSKYLDEKRQKEFVQWLLDTKC (bridge 15-19; numbers in words are those of the source; also: ring between positions 16 and 20, type not given here) [triple agonist of SEQ ID NO: 89] | < 0.1% | 0.7% | 7.1%
{Acetyl(2-(4-imidazolyl))}-[Aib]EGTFTSDYSIAMDEIHQKDFVDWLLAEKC (bridge 15-19; numbers in words are those of the source; also: ring between positions 16 and 20, type not given here) [triple agonist of SEQ ID NO: 91] | 0.3% | 16.8% | 31.9%
[Acetyl(2-(4-imidazolyl))][Aib]EGTFTSDYSIAMDEIHQKDFVNWLLAQKC (bridge 16-20; not fully specified) [triple agonist of SEQ ID NO: 90] | < 0.1% | < 0.1% | 7.4%
{Acetyl(2-(4-imidazolyl))}-[Aib]QGTFTSDYSKYLDEKRQKEFVNWLLAQKC (bridge 15-19; numbers in words are those of the source; also: ring between positions 16 and 20, type not given here) [triple agonist of SEQ ID NO: 93] | 0.7% | 0.3% | 5.7%
